Laboratory results taken from patent US12258605B2, “Alkane oxidation by modified hydroxylases” (The California Institute of Technology, priority 2005, dated 2025).

What was measured:
Format in all cases: biochemical
[1] = Reactions on alkanes, total turnovers (Table 18): propane; conditions: for % rel. act. / TTN: propane (3 C atoms); for % rel. act.: TTN normalized to the highest value of the variant's series; for TTN: total turnovers, standardized reaction conditions
Method: (§1) Reactions on alkanes. Reactions with alkanes from pentane to decane were carried out at 3 mL-scale using 100 mM KPi pH 8.0 buffer containing 2% ethanol (to allow alkane solubilization) and purified protein. 2.5 mL KPi buffer were added with 60 μL of 90 mM alkane solution in ethanol (final conc.=1.8 mM), 150 μL enzyme solution at 1 μM (final conc.=50 nM), and 300 μL NADPH regeneration solution (100 units/mL isocitrate dehydrogenase, 70 mg/mL isocitrate, 1.5 mg/ml NADP^+). Vials were sealed and stirred for 24 hours at 4° C. 1 mL-aliquot of the reaction was removed, added with 10 μl internal standard (25 mM 1-bromohexane in ethanol), and extracted with 200 μl chloroform (30 sec vortexing, 1 min centrifugation at 10000 g). The organic phase was removed and analyzed by gas chromatography. Reactions with ethane, propane, and butane were carried out as described for longer alkanes with the only difference that alkane-saturated KPi buffer was used. Propane reactions with variants from HL5 and L9 libraries were performed on 1 mL-scale reaction using 20 nM enzyme to reduce oxygen limitation. Propane and butane reactions were analyzed by direct injection of reaction solution on the GC using 1-pentanol as internal standard. Ethane reaction products were functionalized (see below) and analyzed by GC using 1-butanol as internal standard. All measurements were performed in triplicate.
(§2) Products from alkane reactions were identified and quantified by gas chromatography using authentic standards and calibration curves with internal standards. For the reactions with alkanes from pentane to decane, GC analyses were carried out using a Shimadzu GC-17A gas chromatograph, Agilent HP5 column (30 m×0.32 mm×0.1 μm film), 1 μL injection, FID detector, and the following separation program: 250° C. inlet, 250° C. detector, 50° C. oven for 3 min, 5° C./min gradient to 100° C., 25° C./min gradient to 230° C., and 230° C. for 3 min. For butane and propane (TTN) reactions, GC analyses were carried out using a Hewlett-Packard 5890 Series II Plus gas chromatograph, Supelco SPB-1 column (60 m×0.52 mm×0.5 μm film), 0.5 μL injection, FID detector, and the following separation program: 250° C. inlet, 275° C. detector, 80° C. oven for 2 min, 10° C./min gradient to 110° C., 25° C./min gradient to 275° C., and 275° C. for 2.5 min. For ethane and propane (rate) reactions, analysis of reaction mixtures was carried out by derivatization to alkyl nitrites followed by GC-ECD analysis. For laurate, reaction product analysis was carried out by derivatization with N-methyl-N-trimethylsilylheptafluorobutyramide followed by extraction with hexane. Organic solutions were analyzed by FID-GC.
Because 35E11 was only marginally stable, the engineering strategy described herein (see below) involved an initial stabilization step followed by iterative rounds of mutagenesis and screening. Random, saturation and site-directed mutagenesis methods were used to create libraries of mutants (FIG. 35), which were screened for activity on a propane surrogate, dimethyl ether. Positives were confirmed in a re-screen and purified for further analysis. Reactions with purified enzymes were carried out in sealed vials in the presence of propane-saturated buffer and a cofactor regeneration system. Improvement in propane total turnover number-moles of propanol produced per mole of enzyme—was a selection criterion for taking a mutant to the next round.
TTNs for each variant-substrate pair were determined using standardized reaction conditions (identical enzyme and substrate concentration, incubation time, cofactor regeneration system) (Table 18). TTN values were used to assess performance because TTN is a cumulative measure of both catalytic and coupling efficiency and because mutants were selected based on improvement in this property. […]

[2] = Reactions on alkanes, total turnovers (Table 18): ethane; conditions: ethane (2 C atoms); for % rel. act.: TTN normalized to the highest value of the variant's series; for TTN: total turnovers, standardized reaction conditions
Method: as §1, §2
(§3) TTNs for each variant-substrate pair were determined using standardized reaction conditions (identical enzyme and substrate concentration, incubation time, cofactor regeneration system) (Table 18). TTN values were used to assess performance because TTN is a cumulative measure of both catalytic and coupling efficiency and because mutants were selected based on improvement in this property. To facilitate comparison among the variants, TTNs were normalized to the highest value in the series (MTN=Maximal Turnover Number) and plotted for the increasing-sized substrates (FIG. 38). A gradual shift of the enzyme's substrate preference during laboratory evolution is evident from these profiles. The marginal activity of wild-type BM3 on these substrates (MTN=150) is restricted to the long-chain alkanes, where it is a promiscuous function of BM3's high C12-C20 fatty acid hydroxylase activity. In the first evolutionary intermediates, substrate preference centers on medium-chain alkanes […], reflecting their selection for activity on octane. In 35E11, selected for activity on propane, preference still centers on C6-C8 alkanes but now extends towards the shorter ones, including propane. Propane activity becomes prevalent with the transition from variant ETS8 to 19A12. […]

[3] = Kinetic constants for n-alkanes: heptane; conditions: N.m = not measurable
Method: (§4) Rate measurements. Initial rates of product formation were determined at 25° C. in 100 mM KPi pH 8.0 buffer using purified protein (100 nM) and a substrate concentration of 1.6 mM. In a 5 mL-vial, 20 μL of alkane solution (in ethanol) were dissolved in 400 μL KPi buffer, to which 500 μL enzyme solution at 100-200 nM was added. Reaction was initiated by adding 100 μL of 5 mM NADPH solution, followed by stirring at 300 rpm for 1 minute, and quenched by adding 200 μL chloroform and stirring at 800 rpm for 10 sec. Solutions were transferred to an Eppendorf tube, to which internal standard (10 μL 25 mM 1-bromohexane in ethanol) was added. Tubes were vortexed for 10 sec and centrifuged for 30 sec at 10,000 g. Organic phase was removed and analyzed by GC. For propane, reactions were carried out in a 5 mL-scale using 100-400 nM purified enzyme, propane-saturated buffer (propane concentration≈1.6 mM) and a final NADPH concentration of 500 μM. Reactions were stopped by addition of 200 μL H2SO4 conc. and analyzed by derivatization to alkyl nitrites followed by GC-ECD analysis as described below.
as §2
(§5) To further investigate the evolution of substrate specificity, kinetic constants for the C5 to C8 alkanes were determined from Michaelis-Menten plots (Table 19). The preference of 35E11 and its evolutionary predecessors for medium-chain alkanes is indicated by their high C8/C5 specificities ((kcat/Km)8/(kcat/Km)5˜100), where Km appears to be the major contributing factor. C8/C5 specificity decreases to ˜5 in the immediate precursors of P450PMO and then switches altogether to the smaller alkane, becoming 0.4 in P450PMO. In P450PMO, catalytic efficiency is highest on propane and decreases along the alkane series, driven by decreasing kcat.

[4] = Kinetic constants for n-alkanes: octane
Method: as §4, §2, §5

[5] = Reactions on alkanes, total turnovers (Table 18): nonane; conditions: nonane (9 C atoms); for % rel. act.: TTN normalized to the highest value of the variant's series; for TTN: total turnovers, standardized reaction conditions
Method: as §1, §2, §3

B1: P450PMO: P450 BM-3 variant, SEQ ID NO:125; 7-7 plus G443A and D698G; propane monooxygenase (protein)
chain: TIKEMPQPKTFGELKNLPLLNTDKPVQALMKIADELGEIFKFEAPGCVTRYISSQRLIKEACDESRFDKNLSQELKFFRDFGGDGLFTSWTHEINWKKAHNILLPSFSQQAMKGYHAMMVDIAVQLVQKWERLNADEHIEVSEDMTRLTLDTIGLCGFNYRFNSFYRDQPHPFIISMVRALDEVMNKPQRANPDDPAYDENKRQCQEDIKVMNDLVDKIIADRKARGEQSDDLLTQMLNGKDPETGEPLDDGNISYQIITFLIAGHETTSGLLSFALYFLVKNPHVLQKVVEEAARVLVDPVPSYKQVKQLKYVGMVLNEALRLWPTFPAFSLYAKEDTVLGGEYPLEKGDEVMVLIPQLHRDKTVWGDDVEEFRPERFENPSAIPQHAFKPFGNGQRACIGQQFALHEATLVLGMMLKHFDFEDHTNYELDIKETLTLKPEAFVVKAKSKKIPLGGIPSPSTGQSAKKVRKKAENAHNTPLLVLYGSNMGTAEGTARDLADIAMSKGFAPQVATLDSHAGNLPREGAVLIVTASYNGHPPDNAKQFVDWLDQASADEVKGVRYSVFGCGDKNWATTYQKVPAFIDETLAAKGAENIADRGEADASDDFEGTYEEWREHMWSDVAAYFNLDIENSEDNKSTLSLQFVDSAADMPLAKMHGAFSTNVVASKELQQPGSARSTRHLEIELPKEASYQEGGHLGVIPRNYEGTVNRVTARFGLDASQQIRLEAEEEKLAHLPLAKTVSVEELLQYVELQDPVTRTQLRAMAAKTVCPPHKVELEALLEKQAYKEQVLAKRLTMLELLEKYPACEMKFSEFIALLPSIRPRYYSISSSPRVDEKQASITVSVVSGEAWSGYGEYKGIASNYLAELQEGDTITCFISTPQSEFTLPKDPETPLIMVGPGTGVAPFRGFVQARKQLKEQGQSLGEAHLYFGCRSPHEDYLYQEELENAQSEGIITLHTAFSRMPNQPKTYVQHVMEQDGKKLIELLDQGAHFYICGDGSQMAPAVEATLMKSYADVHQVSEADARLWLQQLEEKGRYAKDVWAG
modifications: Mutant P450PMO protein sequence
notes: 7-7 plus G443A and D698G; propane monooxygenase
increase of total turnovers on propane ([1]; compared to 139-3): 100 fold
% rel. act. [1]: 100.0%
TTN [1]: 20500 ± 1900
turnovers on propane (TTN) ([1]; propane-saturated buffer, cofactor regeneration system): more than 20,000
% rel. act. [2]: 12.4%
TTN [2]: 2550 ± 250
kcat [3]: 0.533 ± 0.083 s⁻¹
Km ([3]; read-out: Km): 190 ± 40 µM
Km [4]: 185 ± 40 µM
kcat [4]: 0.217 ± 0.067 s⁻¹
% rel. act. [5]: 11.7%
TTN [5]: 2390 ± 30

B2: Wild-type BM-3: wild-type cytochrome P450 BM-3 from Bacillus megaterium, SEQ ID NO:1 (protein, listed as Bacillus megaterium)
chain: TIKEMPQPKTFGELKNLPLLNTDKPVQALMKIADELGEIFKFEAPGRVTRYLSSQRLIKEACDESRFDKNLSQALKFVRDFAGDGLFTSWTHEKNWKKAHNILLPSFSQQAMKGYHAMMVDIAVQLVQKWERLNADEHIEVPEDMTRLTLDTIGLCGFNYRFNSFYRDQPHPFITSMVRALDEAMNKLQRANPDDPAYDENKRQFQEDIKVMNDLVDKIIADRKASGEQSDDLLTHMLNGKDPETGEPLDDENIRYQIITFLIAGHETTSGLLSFALYFLVKNPHVLQKAAEEAARVLVDPVPSYKQVKQLKYVGMVLNEALRLWPTAPAFSLYAKEDTVLGGEYPLEKGDELMVLIPQLHRDKTIWGDDVEEFRPERFENPSAIPQHAFKPFGNGQRACIGQQFALHEATLVLGMMLKHFDFEDHTNYELDIKETLTLKPEGFVVKAKSKKIPLGGIPSPSTEQSAKKVRKKAENAHNTPLLVLYGSNMGTAEGTARDLADIAMSKGFAPQVATLDSHAGNLPREGAVLIVTASYNGHPPDNAKQFVDWLDQASADEVKGVRYSVFGCGDKNWATTYQKVPAFIDETLAAKGAENIADRGEADASDDFEGTYEEWREHMWSDVAAYFNLDIENSEDNKSTLSLQFVDSAADMPLAKMHGAFSTNVVASKELQQPGSARSTRHLEIELPKEASYQEGDHLGVIPRNYEGIVNRVTARFGLDASQQIRLEAEEEKLAHLPLAKTVSVEELLQYVELQDPVTRTQLRAMAAKTVCPPHKVELEALLEKQAYKEQVLAKRLTMLELLEKYPACEMKFSEFIALLPSIRPRYYSISSSPRVDEKQASITVSVVSGEAWSGYGEYKGIASNYLAELQEGDTITCFISTPQSEFTLPKDPETPLIMVGPGTGVAPFRGFVQARKQLKEQGQSLGEAHLYFGCRSPHEDYLYQEELENAQSEGIITLHTAFSRMPNQPKTYVQHVMEQDGKKLIELLDQGAHFYICGDGSQMAPAVEATLMKSYADVHQVSEADARLWLQQLEEKGRYAKDVWAG
% rel. act. [1]: 0.0%
TTN [1]: 0
% rel. act. [2]: 0.0%
TTN [2]: 0
Km [3]: n.m.
kcat [3]: n.m.
Km [4]: > 5000 µM
kcat [4]: <0.083 s⁻¹
% rel. act. [5]: 68.8%
TTN [5]: 110 ± 10
